From US10464978B2, “Peptides and combination of peptides for use in immunotherapy against ovarian cancer and other cancers” (immatics biotechnologies GmbH, priority 2015, dated 2019)

Each substance was assayed against HLA-A*02:01 (Homo sapiens, UniProt P04439, D140Y/D185E/D98H/E176V/E277Q/G131W/G231S/I119V/I121R/I166T/I218V/L300P/L318F/N151K/N90K/P208A/P217A/Q86G/Q94H/R138H/R169H/T345S) (assay: MHC binding assay: UV-ligand exchange with beta2m ELISA (peptide exchange yield)). Conditions: binding to HLA-A*02:01.
From the text: Candidate peptides for T cell based therapies according to the present invention were further tested for their MHC binding capacity (affinity). The individual peptide-MHC complexes were produced by UV-ligand exchange, where a UV-sensitive peptide is cleaved upon UV-irradiation, and exchanged with the peptide of interest as analyzed. Only peptide candidates that can effectively bind and stabilize the peptide-receptive MHC molecules prevent dissociation of the MHC complexes. To determine the yield of the exchange reaction, an ELISA was performed based on the detection of the light chain ([…]) of stabilized MHC complexes. The assay was performed as generally described in Rodenko et al. (Rodenko et al., 2006).
96 well MAXISorp plates (NUNC) were coated over night with 2 ug/ml streptavidin in PBS at room temperature, washed 4× and blocked for 1 h at 37° C. in 2% BSA containing blocking buffer. […] Peptide-MHC monomers of the UV-exchange reaction were diluted 100 fold in blocking buffer. Samples were incubated for 1h at 37° C., washed four times, incubated with 2 ug/ml HRP conjugated anti-β2m for 1h at 37° C., washed again and detected with TMB solution that is stopped with […]. Absorption was measured at 450 nm. Candidate peptides that show a high exchange yield (preferably higher than 50%, most preferred higher than 75%) are generally preferred for a generation and production of antibodies or fragments thereof, and/or T cell receptors or fragments thereof, as they show sufficient avidity to the MHC molecules and prevent dissociation of the MHC complexes.

Q: For “206 (VLQEGKLQKLAQL; listed as Homo sapiens) [compound 206]”, which “Peptide exchange (MHC class I binding score, peptide exchange yield)” value (from here on “Peptide exchange”) is on record?
A: “+++” (≥50 = +++)

Q: “71 (GILARIASV; listed as Homo sapiens) [compound 71]” was tested. Which “Peptide exchange” value did it give?
A: “+++” (≥50 = +++)

Q: With “391 (YVYPQRLNFV; listed as Homo sapiens) [compound 391]” as the substance, how does the “Peptide exchange” value read?
A: “+++” (≥50 = +++)

Q: How did the “Peptide exchange” value turn out when “61 (FLQGYQLHL; listed as Homo sapiens) [compound 61]” was run?
A: “++++” (≥75% = ++++)

Q: “376 (AMFESSQNVLL; listed as Homo sapiens) [compound 376]” was tested. Which “Peptide exchange” value did it give?
A: “++” (≥20% = ++)

Q: For “558 (GLLENIPRV; listed as Homo sapiens) [compound 558]”, which “Peptide exchange” value is on record?
A: “+++” (≥50 = +++)

Q: With “503 (SLNHFTHSV; listed as Homo sapiens) [compound 503]” as the substance, how does the “Peptide exchange” value read?
A: “+++” (≥50 = +++)

Q: “177 (YLLPEEYTSTL; listed as Homo sapiens) [compound 177]” was tested. Which “Peptide exchange” value did it give?
A: “++++” (≥75% = ++++)

Q: How did the “Peptide exchange” value turn out when “427 (ALLPLSPYL; listed as Homo sapiens) [compound 427]” was run?
A: “+++” (≥50 = +++)

Q: Which “Peptide exchange” value does the source give for “276 (ALFTFSPLTV; listed as Homo sapiens) [compound 276]” here?
A: “+++” (≥50 = +++)

Q: With “258 (ELAERVPAI; listed as Homo sapiens) [compound 258]” as the substance, how does the “Peptide exchange” value read?
A: “++” (≥20% = ++)

Q: With “64 (YAAPGGLIGV; listed as Homo sapiens) [compound 64]” as the substance, how does the “Peptide exchange” value read?
A: “++” (≥20% = ++)

Q: With “494 (ALQPEPIKV; listed as Homo sapiens) [compound 494]” as the substance, how does the “Peptide exchange” value read?
A: “++” (≥20% = ++)

Q: For “444 (GLLRDEALAEV; listed as Homo sapiens) [compound 444]”, which “Peptide exchange” value is on record?
A: “+++” (≥50 = +++)

Q: With “9 (GAAKDLPGV; listed as Homo sapiens) [compound 9]” as the substance, how does the “Peptide exchange” value read?
A: “++” (≥20% = ++)

Q: With “55 (SLLDLETLSL; listed as Homo sapiens) [compound 55]” as the substance, how does the “Peptide exchange” value read?
A: “++++” (≥75% = ++++)

Q: Which “Peptide exchange” value does the source give for “100 (YLLSTNAQL; listed as Homo sapiens) [compound 100]” here?
A: “++++” (≥75% = ++++)

Q: “191 (LLQEGQALEYV; listed as Homo sapiens) [compound 191]” was tested. Which “Peptide exchange” value did it give?
A: “++” (≥20% = ++)

Q: For “232 (ALLEAQDVELYL; listed as Homo sapiens) [compound 232]”, which “Peptide exchange” value is on record?
A: “++” (≥20% = ++)

Q: For “454 (KLPPPPPQA; listed as Homo sapiens) [compound 454]”, which “Peptide exchange” value is on record?
A: “+++” (≥50 = +++)

Q: Which “Peptide exchange” value does the source give for “144 (YIMEPSIFNTL; listed as Homo sapiens) [compound 144]” here?
A: “+++” (≥50 = +++)

Q: For “281 (ILRESTEEL; listed as Homo sapiens) [compound 281]”, which “Peptide exchange” value is on record?
A: “+++” (≥50 = +++)

Q: With “552 (GLLDLPFRVGV; listed as Homo sapiens) [compound 552]” as the substance, how does the “Peptide exchange” value read?
A: “++++” (≥75% = ++++)

Q: With “337 (HLLSELEAAPYL; listed as Homo sapiens) [compound 337]” as the substance, how does the “Peptide exchange” value read?
A: “++++” (≥75% = ++++)

Q: “143 (LLLDITPEI; listed as Homo sapiens) [compound 143]” was tested. Which “Peptide exchange” value did it give?
A: “++++” (≥75% = ++++)

Q: For “169 (NLPEYLPFV; listed as Homo sapiens) [compound 169]”, which “Peptide exchange” value is on record?
A: “+++” (≥50 = +++)

Q: With “275 (YLVYILNEL; listed as Homo sapiens) [compound 275]” as the substance, how does the “Peptide exchange” value read?
A: “++” (≥20% = ++)

Q: Which “Peptide exchange” value does the source give for “103 (TLAEEVVAL; listed as Homo sapiens) [compound 103]” here?
A: “+++” (≥50 = +++)
